Measured values as given in the NTF2 design screens of Basanta et al. (2020).

Test: protease stability score; higher = more stable; yeast display proteolysis, trypsin and chymotrypsin;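 further: log10 excess protease needed over predicted unfolded state with 0 meaning unfolded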

Sequence | protease stability score
DETQDKKAERLVKKNNWDEMVRNADKDVRVQVGDYEVHGREDMKRLAKKFKDRYDHVKVDDVQVHNGRVNADMKATVDGHTIRFILQADIHNGRFKYMTLQARSSEQEKHLKRLFQ | 0.475
DETQLRIASEFEEAVRRGNEEQAKRNVDPNARVRVGDTEVHGNEQIAKKIRQEVEHARVSVKSVTNHTDENRVVIDVEFEATHNGEPTSKKYQVNIEIRNGKIKEINYHDSK | -0.157
DETQMDHIRRFFEAVVNGDPDELERQADPNVKFSVGNQQWHGENQLKKEAEKRRKEIRINIKSMEVRVHGDSVVVHIRQEVEVNGQPEDITFTMTVEVSNGKIKSVDVQMDQQEERNVQR | -0.342
DETQMKHLAEEFNKAQKRGNEEKLRELIDKDVTMKVGDKEVHGRERVADKMRKMIERADSISIRDVKSQGDRAEIDMEYRVDGRHRVVIVILRFSNGRIVYAEFQSS | 1.08
DETQRAEEFFKRMQKLAHTNNFEHLANMADPNANFRVGDKTFHGRRDMIRQQKQIRERVDHVEYDVRRIDVHGNELDIKLEVNYDVNGKKDTRTVHYNAENNNGDVVISRVEYK | 0.127
DETREAQEIAKRIHKAVEENDEKQLEDQMPPDASVEVGDKTIHGRSRIARELWEEVETADHVNVSITSIRVDGDKVHVDMRYQFDDNGDDDVKHQKAQYVRNGDHFVLKNVHRK | -0.225
DETRMRELDKVFHHNDPDKMRENLDENVRMVVGDKSFTGRHQVQDWLKIFHDQVDHFEVESLTKEGNKIDVVYRAVVNGQEFRMRVDITVHNGRIKMIKVDFTNEDETRQFLEHIK | 1.55
DETRQAKDMVSELRKALKQGDEDKAMKLADPNVRLDVGEKDLHGRERLKEWVTEIRDKYDRVDLKVTHVHVRGNKIVVHAEVVMRRNGHQKTMTLTIVVRLQGDHLHIVEITQR | 0.803
DETTEASKLLHRINTAWQTNDPDQFQEQFDENARAKVGDKTVHGRKNMNELLKRLVENVDHIDVQVVDFRVDGDKLVIYFRVQNEHNGKHEHDQYAIWAVDRNGHVRAIEWHES | 0.272
DETTVHHILKNFNEAMEQGDPKQAMRLADKDVKLDVGDKRVSGSETLDTLVKNIRDQADTISVKTVHVDGDTAHAVLVIRINGKDVEFNVRIEVHNGRIKSLEMDPDKLKSAMK | 0.852
DETVEELIKRFMRAIKNNNPDELVRNADKDAKYDIGDKTIHGREQLHDHVEHLRDEMQIDYEVENLKVHNGRADVDVKNNNNHNGRPETKRLRLDVVVHNGKIKDVKFQDTR | 0.243
DETVLQVVHRFLKAVETGDPKEVRKNADPNAKAVVGDQTVSGRETLAHQIEREREEMSFEWEKVTNDVQGEHVDVDFTMRMTHNGRPDRSRVRIKYQVHNGKLTYVRVTDDK | -0.149
DEVEKAKNLFDRLVRAFKNNNWKQFSDLADEDVRYVVGDKEWHGREQADEMFREMVEEIDHYDIHVKDIKFHNGKVDLKATASFSVNGKTHRFTVEWRVQMHNGHLRVKQVILK | 1.25
DEVTRAEELLHEIQEAFRTGDEDQARRLADENVQIHVGDKFVRGRRDYVKRLKDEVDRVDHMEVHIKSVDVHGDKATMDYRVRVQFDGQSKERDVVMYAKISNGQLKVTSLTEK | 0.012
DHDAAHQFKKMLDALRTNDEEHARRMADPNAKFQIGDKTYKGMDTFIRQLVREAREIKIHIDDIKVHDKGDKAVLNVNVKFSKNGEPDSRVLNFEFRAHNGHLKEIVVRDDK | 0.757
DHDAKKRIHQLWHALQTGNPDEVVKQVDKDVKVRVGEKDIHGRDQVREDVEREQKDMRVEYKSIRVEMNGDKARVEVHYQHERDGQPRTHRADYEIKWQNGKVKEMRASQKP | -0.244
DHDALERFQEFLENLKSGNPHDLHNMLDKNASLQVGDKTVTGRDQIVDHWRRQREEWEVTYRSVDLKVSGDTVKADFDFQVDINGQPNRVSRQAHVKISNGKLKTLQYRVSEDVKRNIEG | -0.254
DHDALKRASQFLKAMEQGNEREAVRLVDENARVRYGDKQIHGNKQIRDWVRKMHEQARIRIEVTRVQATGDTVTVTAKVDVDVNGKPQTHDMVFRARVHNGHIKSAEFHFDEEFEKRMNS | 1.32

Sequence | protease stability score
DHDALRHATEILRARKTGDDKRIRELVDPNAHVVIGDKSLHGREQIVKFVTKENEEMSIQYRHVSTETRNGRVDIRMDADMRKNGTPDRVRQEMKAEFHNGRLQRMSVHDDK | -0.331
DHDAVRQARELYKVWQTGDPDKVRNMLDPNVRFRIGDKEIRGRESFAEELITQIKQSHVEVRHYSANANGNNVKARANVVIHVNGRPHEFSFIFRARVENGKFKQISVQVDDDLLRKLES | 0.548
DHDIRELFKRLVDAISTNDPQTMNNNMDKDVEARVGDQDYKGRENMAHELVKTREKIRLEMHLNSLNNEGDYVRVEVEQVLEDNGQPDRSVMDAEWRADNGRVQEYHVDEKP | -0.146
DHDKQEFWNHLVEIFKSGNEDDWRKNFDPNAKWHIGDKRVHGREEAVEDFRRRREELRQNIESFTVDARGDKVTVHQVFVVEINGHPRRMSVNIRAKVHNGQIKEMDVRLSDEDKKKEKG | 0.478
DHDLLTKIKTILELIKTGNFEEVRKNFDPNVDVHVGDKTIHGRERWAKELDKEVRELRWDIKIKRVKDRGDRAHFDMEATFEVNGRPANFRANMVVHMHNGRVKHMNIKIPEEDLKRQKS | 0.823
DHDLNQQAQQWVRNFNNGDEDKLQDYADPNVRFQIGDEQVHGREEYKSRVKKKRKHARFRIRVREIDAQGEHVHVKADIIQNINGRPMDDHVIFHFEVRNGKLKSLKLRVDPEKQRELEK | 0.417
DHDLQKTWKDQAAEALQTGDPREFEKMVDENVNVIYGDKTYHGRKQASNLAQRLQKQIDHIRLHSVSIRGDEVNVDLTVNVNGTEMRYHMTARVHNGKVKELKFDPDFVRKAQK | 0.174
DHDLVKHLESFIKNLQDGDDDKLAKYADPNAHIEVGDKVVSGRKQLQEEVRRQRKRMRISLDVKDVKAHNGQADVTFDQRVEVNGRPWQNRYTVIFFLHNGTLREARFDIPEREQRKLES | 0.189
DHDQRRQAKEMVHAMTKGDEDRLRELLDENAKADVGDSKVHGRTQFLRELRTTMEQSQLRLDSFDVKVKDGRVRMRFSFVEDHNGRPNHKNAELQLRLDNGKVQEVRQRDDG | 0.539
DHEAEKRIKKWVDAIHTGDEEQLKRLADPNVKVNVGNYSVRGRENLADMVSRMRDEIRLTYRDVKMDVTGDHARMDADVERDHNGRPERFELKANFRWRNGKITEIDAHWHQ | 1.42
DHEAEKRWTKLQEAIKYNNPQEAKHQMDPNARVRVGDKEFHGMDDFAKYQLDHQRKIEVDRKVKKVDVKNGSVKVVQDVENNNNGTPSRHVMDLRVEVHNGHIRNVRAETDK | -0.295
DHEAKDVFEELLRRMKSGDEDEMKKLVDKNVRYTVGDKTLHGQEEIARHWYEQVKDMRIDIKVKDIKVHNGRVDVKFTFRHEHNGNPDSDKRRVNVEARNGKMQAVDDQKDS | 0.148
DHEAKEIAEKIQRALTSNDPDHLNRQLDPNVRLQIGDKEVEGRQEAHNWLQKVVDEQEISINISDINVNGNHIRIHAVVENQVNGRPFHYEVVIIIIIHNGRVRSQRYQLDEDQDRRIKQ | 0.047
DHEALKVLHKFMEALNTGDPDQLNKNIDPNARFVVGDKTINGREQFREDQRRLKEQIRVYATIRTIRVEGDHANLTVEYEQDHNGKPDSNEVTVTAKLKNGKIQEVREDRKQ | -0.18
DHEANQIAREFVKAIRTNNPTRASQNMDPNVRVTVGDHVFHGREEVKTWIHRLNKEARIDIHINTIESQGDNAKVVFKYRVEVDGRPDSRNVIVDVHAHNGKMKEVVYRVDEDEQHELKK | 0.368
DHEAQENAKHFIDALHTNDPRQVVEMIDPNARVNVGDKQLRGDSQVRKWWRRQNEEIRMHVKVDDIKVKGNNAVAKFKMEITHDGTPNDNHAEMTVTFHNGRATDLKVDEDK | 0.017
DHEAQKALRDVIEAIRENNPDEVKKQLDKNATVRVGDKRLHGTEEQRREVQKKLDEIRIRYQDIKMETSGDTVRASIQFVENHNGEPQRDRVTASMSADNGRVKHFVVTETQ | -0.041
DHEAREIVEEYLKAIERNNPKKAQELVDPNVHFHYGDKRLDGREDLNEKIHRETKHQRVDIKSVSIDVQGDKVDVKVDVVDVHNGQPERYTFEVTYTFKNGQIQNADQKESG | 1.02
